Results on seven molecules are retold here after US20260139061A1 (Novartis, published 2026).

Assay [1] addresses T1, human EGFRvIII (epidermal growth factor receptor variant III), expressed on cells (human, UniProt P00533 25-1210).
T1 construct: whole, on cells; also called hEGFRvIII; hEGFRvII
Kind of assay: flow cytometry (FACS), purified His-tagged scFv on HEK293F cells transiently transfected with hEGFRvIII. Here is the method: HEK293F suspension cells were transiently transfected with either wild type hEGFR or hEGFRvII and were harvested 2 days after transfection. Approximately 5e5 cells/per well were transferred to a BD Falcon 96 well plate. The cells were spun down at 900 rpm (Sorval Legend XT centrifuge) for 3 minutes. The supernatant was removed. Anti-EGFRvII scFv protein samples were diluted in DPBS with 5% FBS. The samples were added into the wells, mixed and incubated for 1 hour. The cells were washed twice in the DPBS with 5% FBS. The cells were incubated with anti-poly His PE (R&D) for 1 hour, washed twice before FACS analysis (LSRII from BD Biosciences).

For assay [2], the target named is T2, EGFRvIII-Fc fusion protein (UniProt P00533 25-645).
T2 construct: Soluble reagent used at different concentrations to stain CAR-transfected Jurkat cells; not shown: Fc part; detected with PE anti-human IgG Fc
As to the kind of experiment: flow cytometry, Jurkat E6 cells electroporated with the CAR vector, stained with different concentrations of Fc fusion protein and PE anti-human IgG Fc. Here is the method:
Jurkat E6 cells were electroporated with either CAR9 vector or CAR10 vector using Amaxa Cell Line Nucleofector Kit V (Lonza, Colgne AG, Germany) and program X-001. One day after the transfection, 0.5×10⁶ cells were placed into each well of a V-shape 96 well plate (Greiner Bio-One, Germany) in 0.2 ml FACS buffer (DPBS buffer containing 5% FBS) and incubated for 10 minutes at room temperature. Cells were then spun down and resuspended in 0.2 ml of the FACS buffer with different concentrations of EGFRvIII-Fc or EGFRwt-Fc and incubated at 4° C. for 30 minutes. Cells were then washed with FACS buffer three times, and incubated with 0.2 ml of the FACS buffer with 2 μl of PE anti-human IgG Fc (Jackson ImmunoResearch Laboratories, West Grove, PA) for 30 minutes at 4° C. in the dark. After washing with 0.2 ml of FACS buffer three times, cells were analyzed on a LSRII (BD Biosciences, San Jose, CA) machine using the FACSDiva software (BD Biosciences, San Jose, CA). Immunofluorescence staining was analyzed as the relative log fluorescence of live cells, and the percentage of the PE positive cells were measured.
A general note: A flow cytometer gives signals particle by particle.

B1: CAR5 - Soluble scFv (scFv)
scFv: EIQLVQSGAEVKKPGATVKISCKGSGFNIEDYYIHWVQQAPGKGLEWMGRIDPENDETKYGPIFQGRVTITADTSTNTVYMELSSLRSEDTAVYYCAFRGGVYWGQGTTVTVSSGGGGSGGGGSGGGGSGGGGSDVVMTQSPLSLPVTLGQPASISCKSSQSLLDSDGKTYLNWLQQRPGQSPRRLISLVSKLDSGVPDRFSGSGSGTDFTLKISRVEAEDVGVYYCWQGTHFPGTFGGGTKVEIKGSHHHHHHHH
notes: Soluble His-tagged humanized scFv; also called humanized EGFRvIII scFv variant, VH1-VK2, 4G4S
Consider B1, for which the binding result in assay [1] was “binds”.

B2: CAR10 (Anti-EGFRvIII clone 139), full CAR on cells (other)
chain: DIQMTQSPSSLSASVGDRVTITCRASQGIRNNLAWYQQKPGKAPKRLIYAASNLQSGVPSRFTGSGSGTEFTLIVSSLQPEDFATYYCLQHHSYPLTSGGGTKVEIKRTGSTSGSGKPGSGEGSEVQVLESGGGLVQPGGSLRLSCAASGFTFSSYAMSWVRQAPGKGLEWVSAISGSGGSTNYADSVKGRFTISRDNSKNTLYLQMNSLRAEDTAVYYCAGSSGWSEYWGQGTLVTVSSTTTPAPRPPTPAPTIASQPLSLRPEACRPAAGGAVHTRGLDFACDIYIWAPLAGTCGVLLLSLVITLYCKRGRKKLLYIFKQPFMRPVQTTQEEDGCSCRFPEEEEGGCELRVKFSRSADAPAYKQGQNQLYNELNLGRREEYDVLDKRRGRDPEMGGKPRRKNPQEGLYNELQKDKMAEAYSEIGMKGERRRGKGHDGLYQGLSTATKDTYDALHMQALPPR
notes: Chimeric antigen receptor (139 scFv, CD8 hinge and TM, 4-1BB, CD3 zeta) on Jurkat, JNL or primary human T cells; also called human CAR10
Regarding B2, in assay [2], the “fold lower binding compared to CAR9” value was about 40 fold.

B3: CAR1 Soluble scFv (scFv)
scFv: EIQLVQSGAEVKKPGATVKISCKGSGFNIEDYYIHWVQQAPGKGLEWMGRIDPENDETKYGPIFQGRVTITADTSTNTVYMELSSLRSEDTAVYYCAFRGGVYWGQGTTVTVSSGGGGSGGGGSGGGGSGGGGSDVVMTQSPDSLAVSLGERATINCKSSQSLLDSDGKTYLNWLQQKPGQPPKRLISLVSKLDSGVPDRFSGSGSGTDFTLTISSLQAEDVAVYYCWQGTHFPGTFGGGTKVEIKGSHHHHHHHH
notes: Soluble His-tagged humanized scFv; also called humanized EGFRvIII scFv variant, VH1-VK4, 4G4S
For the molecule B3, in assay [1], the binding result was “binds”.

B4: CAR8 - Soluble scFv (scFv)
scFv: DVVMTQSPLSLPVTLGQPASISCKSSQSLLDSDGKTYLNWLQQRPGQSPRRLISLVSKLDSGVPDRFSGSGSGTDFTLKISRVEAEDVGVYYCWQGTHFPGTFGGGTKVEIKGGGGSGGGGSGGGGSGGGGSEIQLVQSGAEVKKPGATVKISCKGSGFNIEDYYIHWVQQAPGKGLEWMGRIDPENDETKYGPIFQGRVTITADTSTNTVYMELSSLRSEDTAVYYCAFRGGVYWGQGTTVTVSSGSHHHHHHHH
notes: Soluble His-tagged humanized scFv; also called humanized EGFRvIII scFv variant, VK2-VH1, 4G4S
As for B4, in assay [1], the binding result is “binds”.

B5: CAR2 - Soluble scFv (scFv)
scFv: DVVMTQSPDSLAVSLGERATINCKSSQSLLDSDGKTYLNWLQQKPGQPPKRLISLVSKLDSGVPDRFSGSGSGTDFTLTISSLQAEDVAVYYCWQGTHFPGTFGGGTKVEIKGGGGSGGGGSGGGGSGGGGSEIQLVQSGAEVKKPGATVKISCKGSGFNIEDYYIHWVQQAPGKGLEWMGRIDPENDETKYGPIFQGRVTITADTSTNTVYMELSSLRSEDTAVYYCAFRGGVYWGQGTTVTVSSGSHHHHHHHH
notes: Soluble His-tagged humanized scFv; also called humanized EGFRvIII scFv variant, VK4-VH1, 4G4S
Regarding B5, in assay [1], the binding result is listed as “binds”.

B6: CAR 3 - Soluble scFv (scFv)
scFv: EIQLVQSGAEVKKPGESLRISCKGSGFNIEDYYIHWVRQMPGKGLEWMGRIDPENDETKYGPIFQGHVTISADTSINTVYLQWSSLKASDTAMYYCAFRGGVYWGQGTTVTVSSGGGGSGGGGSGGGGSGGGGSDVVMTQSPLSLPVTLGQPASISCKSSQSLLDSDGKTYLNWLQQRPGQSPRRLISLVSKLDSGVPDRFSGSGSGTDFTLKISRVEAEDVGVYYCWQGTHFPGTFGGGTKVEIKGSHHHHHHHH
notes: Soluble His-tagged humanized scFv; also called humanized EGFRvIII scFv variant, VH5-VK2, 4G4S
Turning to B6, the binding result in assay [1] is given as “binds”.

B7: CAR4 - Soluble scFv (scFv)
scFv: DVVMTQSPLSLPVTLGQPASISCKSSQSLLDSDGKTYLNWLQQRPGQSPRRLISLVSKLDSGVPDRFSGSGSGTDFTLKISRVEAEDVGVYYCWQGTHFPGTFGGGTKVEIKGGGGSGGGGSGGGGSGGGGSEIQLVQSGAEVKKPGESLRISCKGSGFNIEDYYIHWVRQMPGKGLEWMGRIDPENDETKYGPIFQGHVTISADTSINTVYLQWSSLKASDTAMYYCAFRGGVYWGQGTTVTVSSGSHHHHHHHH
notes: Soluble His-tagged humanized scFv; also called humanized EGFRvIII scFv variant, VK2-VH5, 4G4S
With B7, the binding result in assay [1] is reported as “binds”.
